Measured values published in the supplement of paper PMC7877785.
± gives the uncertainty stated by the source.

Test: self-splicing fitness, log relative to wild type (ln ratio); higher = more splicing; Tetrahymena group I intron in knt gene, E. coli kanamycin selection, DiMSum; sequences stand for … in CUCUCU…GGAGGGAAAAGUUAUCAGGCAUGCACCUGGUAGCUAGUCUUUAAACCAAUAGAUUGCAUCGGUUUAAAAGGCAAGACCGUCAAAUUGCGGGAAAGGGGUCAACAGCCGUUCAGUACCAAGUCUCAGGGGAAACUUUGAGAUGGCCUUGCAAAGGGUAUGGUAAUAAGCUGACGGACAUGGUCCUAACCACGCAGCCAAGUCCUAAGUCAACAGAUCUUCUGUUGAUAUGGAUGCAGUUCACAGACUAAAUGUCGGUCGGGGAAGAUGUAUUCUUCUCAUAAGAUAUAGUCGGACCUCUCCUUAAUGGGAGCUAGCGGAUGAAGUGAUGCAACACUGGAGCCGCUGGGAACUAAUUUGUAUGCGAAAGUAUAUUGAUUAGUUUUGGAGUACUCGUGGUCG
Summary of the method: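 Colonies from six replicate transformations of E. coli BL21(DE3) were pooled and amplicon-sequenced on an Illumina HiSeq 2500. The library placed an intron with all eight P1ex-region nucleotides randomised inside the knt kanamycin-resistance gene on pET-22b(+), and cells grew overnight at 37°C or 30°C on LB agar with or without 25 μg/mL kanamycin (plus 100 μg/mL carbenicillin, 50 μM IPTG, 0.2% rhamnose). Fitness is the DiMSum error-weighted combination of wild-type-normalised replicate fold changes, kanamycin versus none.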

Sequence	self-splicing fitness (ln) (30 °C)	self-splicing fitness (ln) (37 °C)
UGGUAGCAAUAUUACGUCAG	-2.07 ± 0.19	-0.266 ± 0.15
UGGUAGCAAUAUUACGUCGA	-0.768 ± 0.1	0.144 ± 0.1
UGGUAGCAAUAUUACGUCUA	-0.44 ± 0.096	0.358 ± 0.12
UGGUAGCAAUAUUACGUGAC	-3.97 ± 0.27	-1.05 ± 0.2
UGGUAGCAAUAUUACGUGAU	-2.76 ± 0.25	-1.34 ± 0.16
UGGUAGCAAUAUUACGUGCG	-0.612 ± 0.12	-0.415 ± 0.15
UGGUAGCAAUAUUACGUUCA	-0.227 ± 0.11	-0.354 ± 0.14
UGUAAGCAAUAUUACGAACU	-0.349 ± 0.12	-0.682 ± 0.12
UGUAAGCAAUAUUACGACGC	-2.61 ± 0.36	-1.61 ± 0.3
UGUAAGCAAUAUUACGAGCA	-0.193 ± 0.14	0.404 ± 0.2
UGUAAGCAAUAUUACGAGCU	-0.434 ± 0.16	0.293 ± 0.16
UGUAAGCAAUAUUACGAGGU	-4.29 ± 0.36	-2.63 ± 0.28
UGUAAGCAAUAUUACGAUGU	-3.26 ± 0.15	-1.93 ± 0.21
UGUAAGCAAUAUUACGCCAC	-3.43 ± 0.33	-2.65 ± 0.41
UGUAAGCAAUAUUACGCGCA	-0.603 ± 0.14	-0.167 ± 0.17
UGUAAGCAAUAUUACGCGCC	-1.18 ± 0.1	-0.53 ± 0.13
UGUAAGCAAUAUUACGCGUC	-3.31 ± 0.25	-2.65 ± 0.32
UGUAAGCAAUAUUACGGCAG	-0.191 ± 0.091	0.0264 ± 0.11
UGUAAGCAAUAUUACGGCGC	-1.87 ± 0.18	-1.43 ± 0.25
UGUAAGCAAUAUUACGGCUA	0.0076 ± 0.11	0.536 ± 0.13
UGUAAGCAAUAUUACGGGCG	0.00753 ± 0.092	0.237 ± 0.11
UGUAAGCAAUAUUACGGGCU	-1.73 ± 0.17	-0.63 ± 0.16
UGUAAGCAAUAUUACGUAAG	-1.86 ± 0.15	-1.84 ± 0.11
UGUAAGCAAUAUUACGUCCG	-0.161 ± 0.12	0.473 ± 0.12

Sequence	self-splicing fitness (ln) (30 °C)	self-splicing fitness (ln) (37 °C)
UGUAAGCAAUAUUACGUGUC	-3.77 ± 0.2	-2.01 ± 0.17
UGUAAGCAAUAUUACGUGUG	-1.04 ± 0.085	-0.237 ± 0.095
UGUAAGCAAUAUUACGUGUU	-3.3 ± 0.15	-0.96 ± 0.12
UGUAAGCAAUAUUACGUUUC	-3.11 ± 0.22	-3.02 ± 0.43
UGUAAGCAAUAUUACGUUUU	-4.1 ± 0.18	-1.14 ± 0.096
UGUCAGCAAUAUUACGAAUG	0.0484 ± 0.12	0.565 ± 0.12
UGUCAGCAAUAUUACGACCA	-0.0909 ± 0.084	0.138 ± 0.12
UGUCAGCAAUAUUACGACGA	-0.0655 ± 0.12	-1.08 ± 0.12
UGUCAGCAAUAUUACGAGCA	-0.272 ± 0.12	-0.347 ± 0.13
UGUCAGCAAUAUUACGAUGC	-2.28 ± 0.42	
UGUCAGCAAUAUUACGCACU	-1.07 ± 0.087	-0.0217 ± 0.12
UGUCAGCAAUAUUACGCCGU	-1.42 ± 0.13	-1.12 ± 0.15
UGUCAGCAAUAUUACGGAAC	-3.82 ± 0.2	-2.23 ± 0.3
UGUCAGCAAUAUUACGGCAC	-2.42 ± 0.35	
UGUCAGCAAUAUUACGGGCA	-2.75 ± 0.21	-1.78 ± 0.27
UGUCAGCAAUAUUACGGGCG	-1.71 ± 0.093	-1.26 ± 0.12
UGUCAGCAAUAUUACGGGUU	-2.31 ± 0.1	-1.07 ± 0.11
UGUCAGCAAUAUUACGGUCG	-0.443 ± 0.068	0.559 ± 0.11
UGUCAGCAAUAUUACGGUUU	-1.01 ± 0.061	-0.547 ± 0.086
UGUCAGCAAUAUUACGUAUG	-0.239 ± 0.063	0.657 ± 0.086
UGUCAGCAAUAUUACGUAUU	-1.77 ± 0.071	-0.932 ± 0.081
UGUCAGCAAUAUUACGUCAG	-0.398 ± 0.09	-0.464 ± 0.098
UGUCAGCAAUAUUACGUCUC	-2.3 ± 0.15	-1.86 ± 0.22
UGUCAGCAAUAUUACGUGCA	-0.626 ± 0.09	-0.232 ± 0.1

Sequence	self-splicing fitness (ln) (30 °C)	self-splicing fitness (ln) (37 °C)
UGUCAGCAAUAUUACGUUCG	0.194 ± 0.073	0.709 ± 0.1
UGUGAGCAAUAUUACGAAGG	-3.98 ± 0.33	-2.19 ± 0.3
UGUGAGCAAUAUUACGACAA	-1.97 ± 0.14	-1.68 ± 0.14
UGUGAGCAAUAUUACGACGC	-2.98 ± 0.33	-2.67 ± 0.38
UGUGAGCAAUAUUACGACUG	-1.04 ± 0.18	-0.343 ± 0.29
UGUGAGCAAUAUUACGAUGG	-2.74 ± 0.2	-2.27 ± 0.19
UGUGAGCAAUAUUACGCCAA	-1.67 ± 0.5	-0.355 ± 0.39
UGUGAGCAAUAUUACGCCGG	-3.85 ± 0.25	-1.98 ± 0.33
UGUGAGCAAUAUUACGCCUU	-2.28 ± 0.4	
UGUGAGCAAUAUUACGCUAG	-3.43 ± 0.32	-1.59 ± 0.2
UGUGAGCAAUAUUACGCUGA	-2.24 ± 0.46	
UGUGAGCAAUAUUACGGAAA	-2.62 ± 0.38	-2.61 ± 0.31
UGUGAGCAAUAUUACGGAGG	-3.33 ± 0.29	-2.11 ± 0.34
UGUGAGCAAUAUUACGGAUA	-1.65 ± 0.35	-1.64 ± 0.34
UGUGAGCAAUAUUACGGAUG	-3.1 ± 0.17	-1.52 ± 0.23
UGUGAGCAAUAUUACGGCAA	-1.83 ± 0.23	-1.27 ± 0.25
UGUGAGCAAUAUUACGGCGA	-1.37 ± 0.14	-1.05 ± 0.15
UGUGAGCAAUAUUACGGUGG	-2.64 ± 0.19	-3.01 ± 0.35
UGUGAGCAAUAUUACGUAAA	-2.31 ± 0.15	-1.31 ± 0.21
UGUGAGCAAUAUUACGUAAG	-1.7 ± 0.15	-0.85 ± 0.21
UGUGAGCAAUAUUACGUAUC	-3.75 ± 0.37	-2.3 ± 0.32
UGUGAGCAAUAUUACGUCUA	-1.51 ± 0.16	-1.36 ± 0.15
UGUGAGCAAUAUUACGUGAG	-1.67 ± 0.14	-1.52 ± 0.18
UGUUAGCAAUAUUACGAACC	-0.427 ± 0.21	0.133 ± 0.25

Sequence	self-splicing fitness (ln) (30 °C)	self-splicing fitness (ln) (37 °C)
UGUUAGCAAUAUUACGAGCG	0.176 ± 0.095	-0.175 ± 0.12
UGUUAGCAAUAUUACGCAAU	-4.18 ± 0.42	-2.67 ± 0.27
UGUUAGCAAUAUUACGCAUA	-1.72 ± 0.21	-0.397 ± 0.16
UGUUAGCAAUAUUACGCGCG	-1.36 ± 0.19	-0.771 ± 0.21
UGUUAGCAAUAUUACGGACA	-1.59 ± 0.23	-0.73 ± 0.2
UGUUAGCAAUAUUACGGCAC	-1.58 ± 0.47	-1.51 ± 0.43
UGUUAGCAAUAUUACGGGUG	-0.781 ± 0.071	-0.441 ± 0.086
UGUUAGCAAUAUUACGGUAG	-0.65 ± 0.22	-0.35 ± 0.19
UGUUAGCAAUAUUACGGUCA	0.281 ± 0.096	0.169 ± 0.11
UGUUAGCAAUAUUACGGUGC	-3.76 ± 0.43	-2.88 ± 0.32
UGUUAGCAAUAUUACGUAAA	-0.887 ± 0.14	0.19 ± 0.21
UGUUAGCAAUAUUACGUACU	0.199 ± 0.2	0.344 ± 0.18
UGUUAGCAAUAUUACGUAUU		-2.12 ± 0.3
UGUUAGCAAUAUUACGUCUC	-4.05 ± 0.42	-2.07 ± 0.31
UGUUAGCAAUAUUACGUGGU	-4.24 ± 0.19	-2.76 ± 0.14
UGUUAGCAAUAUUACGUGUG	-0.767 ± 0.12	-0.724 ± 0.13
UGUUAGCAAUAUUACGUUAG	-0.971 ± 0.12	-1.26 ± 0.12
UGUUAGCAAUAUUACGUUGA	-1.59 ± 0.21	-0.731 ± 0.19
UGUUAGCAAUAUUACGUUUU	-3.9 ± 0.33	-2.19 ± 0.24
UUAAAGCAAUAUUACGACAU	-0.271 ± 0.012	0.189 ± 0.032
UUAAAGCAAUAUUACGACCA	-0.0875 ± 0.22	0.312 ± 0.25
UUAAAGCAAUAUUACGACCC	-0.686 ± 0.28	-0.355 ± 0.29
UUAAAGCAAUAUUACGAGCU	-0.888 ± 0.073	-0.532 ± 0.1
UUAAAGCAAUAUUACGAUUA	0.6 ± 0.089	0.448 ± 0.097
